{
  "source": "paper doi:10.1101/589580",
  "about": "(bioRxiv, 2019)",
  "binders": {"B1": {"name": "afadin (natural protein, UniProt P55196 1-1824, looked up)", "chain": "MSAGGRDEERRKLADIIHHWNANRLDLFEISQPTEDLEFHGVMRFYFQDKAAGNFATKCIRVSSTATTQDVIETLAEKFRPDMRMLSSPKYSLYEVHVSGERRLDIDEKPLVVQLNWNKDDREGRFVLKNENDAIPPKKAQSNGPEKQEKEGVIQNFKRTLSKKEKKEKKKREKEALRQASDKDDRPFQGEDVENSRLAAEVYKDMPETSFTRTISNPEVVMKRRRQQKLEKRMQEFRSSDGRPDSGGTLRIYADSLKPNIPYKTILLSTTDPADFAVAEALEKYGLEKENPKDYCIARVMLPPGAQHSDEKGAKEIILDDDECPLQIFREWPSDKGILVFQLKRRPPDHIPKKTKKHLEGKTPKGKERADGSGYGSTLPPEKLPYLVELSPGRRNHFAYYNYHTYEDGSDSRDKPKLYRLQLSVTEVGTEKLDDNSIQLFGPGIQPHHCDLTNMDGVVTVTPRSMDAETYVEGQRISETTMLQSGMKVQFGASHVFKFVDPSQDHALAKRSVDGGLMVKGPRHKPGIVQETTFDLGGDIHSGTALPTSKSTTRLDSDRVSSASSTAERGMVKPMIRVEQQPDYRRQESRTQDASGPELILPASIEFRESSEDSFLSAIINYTNSSTVHFKLSPTYVLYMACRYVLSNQYRPDISPTERTHKVIAVVNKMVSMMEGVIQKQKNIAGALAFWMANASELLNFIKQDRDLSRITLDAQDVLAHLVQMAFKYLVHCLQSELNNYMPAFLDDPEENSLQRPKIDDVLHTLTGAMSLLRRCRVNAALTIQLFSQLFHFINMWLFNRLVTDPDSGLCSHYWGAIIRQQLGHIEAWAEKQGLELAADCHLSRIVQATTLLTMDKYAPDDIPNINSTCFKLNSLQLQALLQNYHCAPDEPFIPTDLIENVVTVAENTADELARSDGREVQLEEDPDLQLPFLLPEDGYSCDVVRNIPNGLQEFLDPLCQRGFCRLIPHTRSPGTWTIYFEGADYESHLLRENTELAQPLRKEPEIITVTLKKQNGMGLSIVAAKGAGQDKLGIYVKSVVKGGAADVDGRLAAGDQLLSVDGRSLVGLSQERAAELMTRTSSVVTLEVAKQGAIYHGLATLLNQPSPMMQRISDRRGSGKPRPKSEGFELYNNSTQNGSPESPQLPWAEYSEPKKLPGDDRLMKNRADHRSSPNVANQPPSPGGKSAYASGTTAKITSVSTGNLCTEEQTPPPRPEAYPIPTQTYTREYFTFPASKSQDRMAPPQNQWPNYEEKPHMHTDSNHSSIAIQRVTRSQEELREDKAYQLERHRIEAAMDRKSDSDMWINQSSSLDSSTSSQEHLNHSSKSVTPASTLTKSGPGRWKTPAAIPATPVAVSQPIRTDLPPPPPPPPVHYAGDFDGMSMDLPLPPPPSANQIGLPSAQVAAAERRKREEHQRWYEKEKARLEEERERKRREQERKLGQMRTQSLNPAPFSPLTAQQMKPEKPSTLQRPQETVIRELQPQQQPRTIERRDLQYITVSKEELSSGDSLSPDPWKRDAKEKLEKQQQMHIVDMLSKEIQELQSKPDRSAEESDRLRKLMLEWQFQKRLQESKQKDEDDEEEEDDDVDTMLIMQRLEAERRARLQDEERRRQQQLEEMRKREAEDRARQEEERRRQEEERTKRDAEEKRRQEEGYYSRLEAERRRQHDEAARRLLEPEAPGLCRPPLPRDYEPPSPSPAPGAPPPPPQRNASYLKTQVLSPDSLFTAKFVAYNEEEEEEDCSLAGPNSYPGSTGAAVGAHDACRDAKEKRSKSQDADSPGSSGAPENLTFKERQRLFSQGQDVSNKVKASRKLTELENELNTK"}, "B2": {"name": "cingulin (natural protein, UniProt Q9P2M7 1-1203, looked up)", "chain": "MEQAPNMAEPRGPVDHGVQIRFITEPVSGAEMGTLRRGGRRPAKDARASTYGVAVRVQGIAGQPFVVLNSGEKGGDSFGVQIKGANDQGASGALSSDLELPENPYSQVKGFPAPSQSSTSDEEPGAYWNGKLLRSHSQASLAGPGPVDPSNRSNSMLELAPKVASPGSTIDTAPLSSVDSLINKFDSQLGGQARGRTGRRTRMLPPEQRKRSKSLDSRLPRDTFEERERQSTNHWTSSTKYDNHVGTSKQPAQSQNLSPLSGFSRSRQTQDWVLQSFEEPRRSAQDPTMLQFKSTPDLLRDQQEAAPPGSVDHMKATIYGILREGSSESETSVRRKVSLVLEKMQPLVMVSSGSTKAVAGQGELTRKVEELQRKLDEEVKKRQKLEPSQVGLERQLEEKTEECSRLQELLERRKGEAQQSNKELQNMKRLLDQGEDLRHGLETQVMELQNKLKHVQGPEPAKEVLLKDLLETRELLEEVLEGKQRVEEQLRLRERELTALKGALKEEVASRDQEVEHVRQQYQRDTEQLRRSMQDATQDHAVLEAERQKMSALVRGLQRELEETSEETGHWQSMFQKNKEDLRATKQELLQLRMEKEEMEEELGEKIEVLQRELEQARASAGDTRQVEVLKKELLRTQEELKELQAERQSQEVAGRHRDRELEKQLAVLRVEADRGRELEEQNLQLQKTLQQLRQDCEEASKAKMVAEAEATVLGQRRAAVETTLRETQEENDEFRRRILGLEQQLKETRGLVDGGEAVEARLRDKLQRLEAEKQQLEEALNASQEEEGSLAAAKRALEARLEEAQRGLARLGQEQQTLNRALEEEGKQREVLRRGKAELEEQKRLLDRTVDRLNKELEKIGEDSKQALQQLQAQLEDYKEKARREVADAQRQAKDWASEAEKTSGGLSRLQDEIQRLRQALQASQAERDTARLDKELLAQRLQGLEQEAENKKRSQDDRARQLKGLEEKVSRLETELDEEKNTVELLTDRVNRGRDQVDQLRTELMQERSARQDLECDKISLERQNKDLKTRLASSEGFQKPSASLSQLESQNQLLQERLQAEEREKTVLQSTNRKLERKVKELSIQIEDERQHVNDQKDQLSLRVKALKRQVDEAEEEIERLDGLRKKAQREVEEQHEVNEQLQARIKSLEKDSWRKASRSAAESALKNEGLSSDEEFDSVYDPSSIASLLTESNLQTSSC"}, "B3": {"name": "transcription factor ZONAB (natural protein)", "chain": "not shown"}, "B4": {"name": "endogenous ZO2 with N-terminal mNeonGreen (CRISPR knock-in, MDCK-II) (natural protein, dog (endogenous in MDCK-II), UniProt Q95168 1-1174, looked up)", "chain": "MEELIWEQYTVTLQKDSKRGFGIAVSGGRDNPHFENGETSIVISDVLPGGPADGLLQENDRVVMVNGTPMEDVLHSFAVQQLRKSGKIAAIVVKRPRKVQLAPPQGSLPVDEDDRAFEVMDEFDGRSARSGYSERSRRSSHGGRSRSWEDSPERGRPHERAWSQERERSRGRSLERGLDHDDDYRRPRERSRGRSLERGLDHDDDYGRPGERSHGMSTDRGYDRGYDRGYDRGYDRTYSPEAEYGRRTQPDARHAGSRSRSREHLRSRSPSPELRGRPDHAGQPDSDRPIGVLLMKSKANEEYGLRLGSQIFIKQMTRTALATKDGNLHEGDIILKINGTVTENMSLTDARKLIEKSRGKLQLVVLRDSKQTLINIPSLNDSDSEIEDISEIESNRSFSPEERRQQYSDYDYHSSNEKLKERPNSREDMQNRWSRMGATPTPFKSMGDIASVVGTENSKEPRYQEEPPAPQPKAAPRTFLRPSPEDEAIYGPNTKMVRFKKGDSVGLRLAGGNDVGIFVAGIQEGTSAEQEGLQEGDQILKVNTQDFRGLVREDAVLYLLEIPKGEMVTILAQSRADVYRDILACGRGDSFFIRSHFECEKETPQSLAFSRGEVFRVVDTLYDGKLGHWLAVRIGNELEKGLIPNKSRAEQMASVQNAQRDNAGDRADFWRMRGQRSGMKKNLRKSREDLTAAVSVSTKFPAYERVLLREAGFKRPVVLFGPIADIALEKLANELPDLFQTAKTEPKDAGSEKSSGVVRLNTVRQIIEQDKHALLDVTPKAVDLLNYTQWFPIVIFFNPDSRQGVKTMRQRLNPTSNKSSRKLYDQANKLKKTCAHLFTATINLNSANDSWFGSLKDTIQHQQGEAVWVSEGKMEGMDDDPEDRMSYLTAMGADYLSCDSRLISDFEDTDGEGGAYTDNELDEPAEEPLVSSITRSSEPVQHEESIRKPSPEPRAQMRRAASRDQLRDSSPPPAFKPEPPKAKTQNREESFDISRSHDYKSNPSAVAGNEVSGASTRSCPPPIAAKPSFGRSILKPSTPVPSPESEEVGEGSEEQEGAPKSVLGKVKIFEKMDHKARLQRMQELQEAQNARIEIAQKHPDIYAVPIKTHKPDPGLSQHTSSRPPEPQKGPSRLYQDPRGSYGSDAEEEEYRQQLSEHSKRGYYSQPSRYRDTEL"}},
  "key": {"[1]": {"target": "full-length ZO1 with C-terminal mEGFP (UniProt Q07157 1-1748)", "sequence (Q07157 whole entry)": "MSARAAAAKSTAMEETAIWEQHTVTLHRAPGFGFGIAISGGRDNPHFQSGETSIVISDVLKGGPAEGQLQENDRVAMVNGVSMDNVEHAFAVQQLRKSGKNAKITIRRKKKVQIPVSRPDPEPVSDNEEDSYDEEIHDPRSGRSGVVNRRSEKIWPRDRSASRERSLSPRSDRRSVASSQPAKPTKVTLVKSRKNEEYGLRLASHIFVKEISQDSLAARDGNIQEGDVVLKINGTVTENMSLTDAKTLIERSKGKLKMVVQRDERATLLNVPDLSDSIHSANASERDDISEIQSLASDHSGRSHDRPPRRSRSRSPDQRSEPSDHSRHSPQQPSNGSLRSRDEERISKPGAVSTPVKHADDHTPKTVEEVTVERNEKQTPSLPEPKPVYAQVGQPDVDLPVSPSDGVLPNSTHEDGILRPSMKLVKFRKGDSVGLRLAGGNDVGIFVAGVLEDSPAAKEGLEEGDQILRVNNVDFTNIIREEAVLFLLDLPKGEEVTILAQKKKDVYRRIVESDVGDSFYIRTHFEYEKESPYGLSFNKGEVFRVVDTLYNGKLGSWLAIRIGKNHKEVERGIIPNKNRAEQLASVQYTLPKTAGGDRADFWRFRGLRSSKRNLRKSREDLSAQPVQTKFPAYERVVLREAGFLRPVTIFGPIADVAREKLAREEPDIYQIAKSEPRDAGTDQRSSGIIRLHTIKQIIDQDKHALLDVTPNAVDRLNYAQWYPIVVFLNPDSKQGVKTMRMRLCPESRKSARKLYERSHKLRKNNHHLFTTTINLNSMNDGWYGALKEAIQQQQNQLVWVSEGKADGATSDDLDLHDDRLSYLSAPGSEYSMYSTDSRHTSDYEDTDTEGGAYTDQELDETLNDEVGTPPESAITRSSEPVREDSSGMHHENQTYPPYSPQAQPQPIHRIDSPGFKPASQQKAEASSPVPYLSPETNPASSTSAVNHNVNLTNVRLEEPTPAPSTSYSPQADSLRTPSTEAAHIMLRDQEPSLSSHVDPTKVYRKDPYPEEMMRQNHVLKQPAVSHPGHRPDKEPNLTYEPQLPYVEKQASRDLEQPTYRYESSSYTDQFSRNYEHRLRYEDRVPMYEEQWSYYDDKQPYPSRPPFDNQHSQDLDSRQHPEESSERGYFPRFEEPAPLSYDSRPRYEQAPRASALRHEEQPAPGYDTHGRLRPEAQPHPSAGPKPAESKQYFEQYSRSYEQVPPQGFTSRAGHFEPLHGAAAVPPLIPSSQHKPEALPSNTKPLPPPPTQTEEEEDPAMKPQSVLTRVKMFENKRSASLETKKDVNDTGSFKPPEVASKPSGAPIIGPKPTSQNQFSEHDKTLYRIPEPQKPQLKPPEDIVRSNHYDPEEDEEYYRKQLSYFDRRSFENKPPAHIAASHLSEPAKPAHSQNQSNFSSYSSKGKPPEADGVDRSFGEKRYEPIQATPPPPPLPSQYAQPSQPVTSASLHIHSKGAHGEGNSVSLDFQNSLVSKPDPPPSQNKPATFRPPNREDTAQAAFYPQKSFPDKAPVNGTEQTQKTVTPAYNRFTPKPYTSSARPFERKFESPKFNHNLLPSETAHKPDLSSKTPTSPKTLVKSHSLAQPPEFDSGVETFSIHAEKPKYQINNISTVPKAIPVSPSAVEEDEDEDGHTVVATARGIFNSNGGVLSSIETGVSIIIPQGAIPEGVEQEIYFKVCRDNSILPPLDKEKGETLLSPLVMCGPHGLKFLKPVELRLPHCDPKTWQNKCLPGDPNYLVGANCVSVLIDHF", "assay": "client partitioning into phase-separated droplets"}, "FCS molecular brightness": {"target": "the molecule itself", "assay": "FCS molecular brightness"}},
  "note": "No end group written: not given here.",
  "data": [
    {"binder": "B1", "values": [
      {"measurement": "partitioning (client fluorescence inside/outside ZO1 droplets)", "setting": "[1]", "result": 28, "unit": "fold"}
    ]},
    {"binder": "B2", "values": [
      {"measurement": "partitioning (client fluorescence inside/outside ZO1 droplets)", "setting": "[1]", "result": 25, "unit": "fold"}
    ]},
    {"binder": "B3", "values": [
      {"measurement": "partitioning (client fluorescence inside/outside ZO1 droplets)", "setting": "[1]", "result": 20, "unit": "fold"}
    ]},
    {"binder": "SCPRKTTSYPTPRPYPKPAPSSGKDYV (also: CoA-DY647 on YBBR-tag, labelled with PPTase Sfp, tag not in given chain)", "note": "[C-terminal tail of claudin-1]", "values": [
      {"measurement": "partitioning (client fluorescence inside/outside ZO1 droplets)", "setting": "[1]", "result": 44, "unit": "fold"}
    ]},
    {"binder": "B4", "values": [
      {"measurement": "stoichiometry N", "setting": "FCS molecular brightness", "result": 1.5}
    ]}
  ]
}
